# Data from patent US20110118447A1.
# Biological target: binding partner of C5A (XPA23)
# Test: Biacore K-off
row,fold difference in affinity vs original [fold],Binder
1,1.4,"C5A (XPA23) VL N30Y (antibody, V domains shown) VH: EVQLLESGGGLVQPGGSLRLSCAASGFTFSKYFMFWVRQAPGKGLEWVSVISPSGGMTRYADSVKGRFTISRDNSKNTLYLQMNSLRAEDTAVYYCARVGYGGNSDYWGQGTLVTVSS VL: DIQMTQSPSSVSASVGDRLTIICRASQDIYRWLAWYQQTPGNAPKLLIHSATSLQSGVPSRFSGSGSGTDFTLTINSLQPEDFATYYCQQADSFPLTFGGGTKVEIK"
2,0.24,"C5A (XPA23) VL R31T (antibody, V domains shown) VH: EVQLLESGGGLVQPGGSLRLSCAASGFTFSKYFMFWVRQAPGKGLEWVSVISPSGGMTRYADSVKGRFTISRDNSKNTLYLQMNSLRAEDTAVYYCARVGYGGNSDYWGQGTLVTVSS VL: DIQMTQSPSSVSASVGDRLTIICRASQDINTWLAWYQQTPGNAPKLLIHSATSLQSGVPSRFSGSGSGTDFTLTINSLQPEDFATYYCQQADSFPLTFGGGTKVEIK"
3,0.27,"C5A (XPA23) VL R31Q (antibody, V domains shown) VH: EVQLLESGGGLVQPGGSLRLSCAASGFTFSKYFMFWVRQAPGKGLEWVSVISPSGGMTRYADSVKGRFTISRDNSKNTLYLQMNSLRAEDTAVYYCARVGYGGNSDYWGQGTLVTVSS VL: DIQMTQSPSSVSASVGDRLTIICRASQDINQWLAWYQQTPGNAPKLLIHSATSLQSGVPSRFSGSGSGTDFTLTINSLQPEDFATYYCQQADSFPLTFGGGTKVEIK"
4,0.02,"C5A (XPA23) VL S50E (antibody, V domains shown) VH: EVQLLESGGGLVQPGGSLRLSCAASGFTFSKYFMFWVRQAPGKGLEWVSVISPSGGMTRYADSVKGRFTISRDNSKNTLYLQMNSLRAEDTAVYYCARVGYGGNSDYWGQGTLVTVSS VL: DIQMTQSPSSVSASVGDRLTIICRASQDINRWLAWYQQTPGNAPKLLIHEATSLQSGVPSRFSGSGSGTDFTLTINSLQPEDFATYYCQQADSFPLTFGGGTKVEIK"
5,0.52,"C5A (XPA23) VL H49Y (antibody, V domains shown) VH: EVQLLESGGGLVQPGGSLRLSCAASGFTFSKYFMFWVRQAPGKGLEWVSVISPSGGMTRYADSVKGRFTISRDNSKNTLYLQMNSLRAEDTAVYYCARVGYGGNSDYWGQGTLVTVSS VL: DIQMTQSPSSVSASVGDRLTIICRASQDINRWLAWYQQTPGNAPKLLIYSATSLQSGVPSRFSGSGSGTDFTLTINSLQPEDFATYYCQQADSFPLTFGGGTKVEIK"
6,0.13,"C5A (XPA23) VL A51D (antibody, V domains shown) VH: EVQLLESGGGLVQPGGSLRLSCAASGFTFSKYFMFWVRQAPGKGLEWVSVISPSGGMTRYADSVKGRFTISRDNSKNTLYLQMNSLRAEDTAVYYCARVGYGGNSDYWGQGTLVTVSS VL: DIQMTQSPSSVSASVGDRLTIICRASQDINRWLAWYQQTPGNAPKLLIHSDTSLQSGVPSRFSGSGSGTDFTLTINSLQPEDFATYYCQQADSFPLTFGGGTKVEIK"
7,0.1,"C5A (XPA23) VL S50K (antibody, V domains shown) VH: EVQLLESGGGLVQPGGSLRLSCAASGFTFSKYFMFWVRQAPGKGLEWVSVISPSGGMTRYADSVKGRFTISRDNSKNTLYLQMNSLRAEDTAVYYCARVGYGGNSDYWGQGTLVTVSS VL: DIQMTQSPSSVSASVGDRLTIICRASQDINRWLAWYQQTPGNAPKLLIHKATSLQSGVPSRFSGSGSGTDFTLTINSLQPEDFATYYCQQADSFPLTFGGGTKVEIK"
8,0.1,"C5A (XPA23) VL H49K (antibody, V domains shown) VH: EVQLLESGGGLVQPGGSLRLSCAASGFTFSKYFMFWVRQAPGKGLEWVSVISPSGGMTRYADSVKGRFTISRDNSKNTLYLQMNSLRAEDTAVYYCARVGYGGNSDYWGQGTLVTVSS VL: DIQMTQSPSSVSASVGDRLTIICRASQDINRWLAWYQQTPGNAPKLLIKSATSLQSGVPSRFSGSGSGTDFTLTINSLQPEDFATYYCQQADSFPLTFGGGTKVEIK"
9,0.11,"C5A (XPA23) VL H49D (antibody, V domains shown) VH: EVQLLESGGGLVQPGGSLRLSCAASGFTFSKYFMFWVRQAPGKGLEWVSVISPSGGMTRYADSVKGRFTISRDNSKNTLYLQMNSLRAEDTAVYYCARVGYGGNSDYWGQGTLVTVSS VL: DIQMTQSPSSVSASVGDRLTIICRASQDINRWLAWYQQTPGNAPKLLIDSATSLQSGVPSRFSGSGSGTDFTLTINSLQPEDFATYYCQQADSFPLTFGGGTKVEIK"
10,0.14,"C5A (XPA23) VL H49S (antibody, V domains shown) VH: EVQLLESGGGLVQPGGSLRLSCAASGFTFSKYFMFWVRQAPGKGLEWVSVISPSGGMTRYADSVKGRFTISRDNSKNTLYLQMNSLRAEDTAVYYCARVGYGGNSDYWGQGTLVTVSS VL: DIQMTQSPSSVSASVGDRLTIICRASQDINRWLAWYQQTPGNAPKLLISSATSLQSGVPSRFSGSGSGTDFTLTINSLQPEDFATYYCQQADSFPLTFGGGTKVEIK"
11,0.87,"C5A (XPA23) VL S50T (antibody, V domains shown) VH: EVQLLESGGGLVQPGGSLRLSCAASGFTFSKYFMFWVRQAPGKGLEWVSVISPSGGMTRYADSVKGRFTISRDNSKNTLYLQMNSLRAEDTAVYYCARVGYGGNSDYWGQGTLVTVSS VL: DIQMTQSPSSVSASVGDRLTIICRASQDINRWLAWYQQTPGNAPKLLIHTATSLQSGVPSRFSGSGSGTDFTLTINSLQPEDFATYYCQQADSFPLTFGGGTKVEIK"
12,0.05,"C5A (XPA23) VL S50Y (antibody, V domains shown) VH: EVQLLESGGGLVQPGGSLRLSCAASGFTFSKYFMFWVRQAPGKGLEWVSVISPSGGMTRYADSVKGRFTISRDNSKNTLYLQMNSLRAEDTAVYYCARVGYGGNSDYWGQGTLVTVSS VL: DIQMTQSPSSVSASVGDRLTIICRASQDINRWLAWYQQTPGNAPKLLIHYATSLQSGVPSRFSGSGSGTDFTLTINSLQPEDFATYYCQQADSFPLTFGGGTKVEIK"
13,0.31,"C5A (XPA23) VL H49N (antibody, V domains shown) VH: EVQLLESGGGLVQPGGSLRLSCAASGFTFSKYFMFWVRQAPGKGLEWVSVISPSGGMTRYADSVKGRFTISRDNSKNTLYLQMNSLRAEDTAVYYCARVGYGGNSDYWGQGTLVTVSS VL: DIQMTQSPSSVSASVGDRLTIICRASQDINRWLAWYQQTPGNAPKLLINSATSLQSGVPSRFSGSGSGTDFTLTINSLQPEDFATYYCQQADSFPLTFGGGTKVEIK"
14,0.29,"C5A (XPA23) VL A51E (antibody, V domains shown) VH: EVQLLESGGGLVQPGGSLRLSCAASGFTFSKYFMFWVRQAPGKGLEWVSVISPSGGMTRYADSVKGRFTISRDNSKNTLYLQMNSLRAEDTAVYYCARVGYGGNSDYWGQGTLVTVSS VL: DIQMTQSPSSVSASVGDRLTIICRASQDINRWLAWYQQTPGNAPKLLIHSETSLQSGVPSRFSGSGSGTDFTLTINSLQPEDFATYYCQQADSFPLTFGGGTKVEIK"
15,0.25,"C5A (XPA23) VL S50N (antibody, V domains shown) VH: EVQLLESGGGLVQPGGSLRLSCAASGFTFSKYFMFWVRQAPGKGLEWVSVISPSGGMTRYADSVKGRFTISRDNSKNTLYLQMNSLRAEDTAVYYCARVGYGGNSDYWGQGTLVTVSS VL: DIQMTQSPSSVSASVGDRLTIICRASQDINRWLAWYQQTPGNAPKLLIHNATSLQSGVPSRFSGSGSGTDFTLTINSLQPEDFATYYCQQADSFPLTFGGGTKVEIK"
16,0.38,"C5A (XPA23) VL R31N (antibody, V domains shown) VH: EVQLLESGGGLVQPGGSLRLSCAASGFTFSKYFMFWVRQAPGKGLEWVSVISPSGGMTRYADSVKGRFTISRDNSKNTLYLQMNSLRAEDTAVYYCARVGYGGNSDYWGQGTLVTVSS VL: DIQMTQSPSSVSASVGDRLTIICRASQDINNWLAWYQQTPGNAPKLLIHSATSLQSGVPSRFSGSGSGTDFTLTINSLQPEDFATYYCQQADSFPLTFGGGTKVEIK"
17,0.21,"C5A (XPA23) VL S50Q (antibody, V domains shown) VH: EVQLLESGGGLVQPGGSLRLSCAASGFTFSKYFMFWVRQAPGKGLEWVSVISPSGGMTRYADSVKGRFTISRDNSKNTLYLQMNSLRAEDTAVYYCARVGYGGNSDYWGQGTLVTVSS VL: DIQMTQSPSSVSASVGDRLTIICRASQDINRWLAWYQQTPGNAPKLLIHQATSLQSGVPSRFSGSGSGTDFTLTINSLQPEDFATYYCQQADSFPLTFGGGTKVEIK"
18,1.18,"C5A (XPA23) VL R31K (antibody, V domains shown) VH: EVQLLESGGGLVQPGGSLRLSCAASGFTFSKYFMFWVRQAPGKGLEWVSVISPSGGMTRYADSVKGRFTISRDNSKNTLYLQMNSLRAEDTAVYYCARVGYGGNSDYWGQGTLVTVSS VL: DIQMTQSPSSVSASVGDRLTIICRASQDINKWLAWYQQTPGNAPKLLIHSATSLQSGVPSRFSGSGSGTDFTLTINSLQPEDFATYYCQQADSFPLTFGGGTKVEIK"
19,11.1,"C5A (XPA23) VL R31D (antibody, V domains shown) VH: EVQLLESGGGLVQPGGSLRLSCAASGFTFSKYFMFWVRQAPGKGLEWVSVISPSGGMTRYADSVKGRFTISRDNSKNTLYLQMNSLRAEDTAVYYCARVGYGGNSDYWGQGTLVTVSS VL: DIQMTQSPSSVSASVGDRLTIICRASQDINDWLAWYQQTPGNAPKLLIHSATSLQSGVPSRFSGSGSGTDFTLTINSLQPEDFATYYCQQADSFPLTFGGGTKVEIK"
20,0.44,"C5A (XPA23) VL R31S (antibody, V domains shown) VH: EVQLLESGGGLVQPGGSLRLSCAASGFTFSKYFMFWVRQAPGKGLEWVSVISPSGGMTRYADSVKGRFTISRDNSKNTLYLQMNSLRAEDTAVYYCARVGYGGNSDYWGQGTLVTVSS VL: DIQMTQSPSSVSASVGDRLTIICRASQDINSWLAWYQQTPGNAPKLLIHSATSLQSGVPSRFSGSGSGTDFTLTINSLQPEDFATYYCQQADSFPLTFGGGTKVEIK"
21,0.21,"C5A (XPA23) VL H49R (antibody, V domains shown) VH: EVQLLESGGGLVQPGGSLRLSCAASGFTFSKYFMFWVRQAPGKGLEWVSVISPSGGMTRYADSVKGRFTISRDNSKNTLYLQMNSLRAEDTAVYYCARVGYGGNSDYWGQGTLVTVSS VL: DIQMTQSPSSVSASVGDRLTIICRASQDINRWLAWYQQTPGNAPKLLIRSATSLQSGVPSRFSGSGSGTDFTLTINSLQPEDFATYYCQQADSFPLTFGGGTKVEIK"
22,0.05,"C5A (XPA23) VL S50H (antibody, V domains shown) VH: EVQLLESGGGLVQPGGSLRLSCAASGFTFSKYFMFWVRQAPGKGLEWVSVISPSGGMTRYADSVKGRFTISRDNSKNTLYLQMNSLRAEDTAVYYCARVGYGGNSDYWGQGTLVTVSS VL: DIQMTQSPSSVSASVGDRLTIICRASQDINRWLAWYQQTPGNAPKLLIHHATSLQSGVPSRFSGSGSGTDFTLTINSLQPEDFATYYCQQADSFPLTFGGGTKVEIK"
